The conditions of data set [1]: cited from earlier work.
A short description of data set [2]: activity of the catalase colloidal suspension before deposition. Format: biochemical, bovine. The note with it: colloidal suspension in water with 0.1% thymol, protein 33 mg/ml. On the procedure: 25 ml of a 2× crystallized bovine liver catalase (Sigma C100-58MG; 056K7010) colloidal suspension in water with 0.1% thymol was prepared. Protein concentration was 33 mg/ml with an activity of 4.1×10^4 U/ml.

Data set [3] in a line: catalysis of 5% hydrogen peroxide solution by plasma-deposited catalase coating. Format: biochemical, bovine. The note with it: for catalytic activity after molecular plasma deposition: deposited 10 min on aluminum oxide disk, placed in 5% hydrogen peroxide. The source says: Using the apparatus illustrated in FIG. 2, the high voltage power supply was attached to a 304 stainless steel, 18 gauge needle set at −5000V. The substrate was an aluminum oxide disk ¼″ thick by 1.5″ in diameter, having an area of approximately 11 sq cm and set at a potential of 5000 V. The substrate was centered and placed 5 cm from the hole in the chamber. The chamber was pumped to 40 mTorr and the flow of the colloidal suspension initiated. The deposition onto the substrate was allowed to proceed for 10 minutes. At the end of the deposition process, the substrate was removed from the chamber and the sample was placed in a 5% solution of hydrogen peroxide.
The deposition was repeated twice under the same conditions, except that after the substrate was removed from the chamber, the samples were placed in an ultrasonic water bath for 10 min. Additionally, one of the samples was maintained at 10° C. for 72 hr after removal from the bath.

≈ marks a conversion by molar mass, not a printed value.

`NCCCC[C@H](N)C(=O)O` [Lysine]: in data set [1], the “water solubility (in words)” value is reported as “highly water soluble”.

Take `Nc1ncnc2nc[nH]c12` [adenine]: the water solubility in data set [1] is 500 µg/mL (≈ 3.7 mM).

As for `Nc1cc[nH]c(=O)n1` [cytosine], the water solubility entry in data set [1] was “insoluble”.

`Nc1nc2nc[nH]c2c(=O)[nH]1` [guanine]: in data set [1], the water solubility result was “insoluble”.

B1: catalase: 2× crystallized bovine liver catalase (Sigma C100-58MG; 056K7010), a polypeptide enzyme (protein, UniProt P00432 2-527, looked up)
Catalase: ADNRDPASDQMKHWKEQRAAQKPDVLTTGGGNPVGDKLNSLTVGPRGPLLVQDVVFTDEMAHFDRERIPERVVHAKGAGAFGYFEVTHDITRYSKAKVFEHIGKRTPIAVRFSTVAGESGSADTVRDPRGFAVKFYTEDGNWDLVGNNTPIFFIRDALLFPSFIHSQKRNPQTHLKDPDMVWDFWSLRPESLHQVSFLFSDRGIPDGHRHMNGYGSHTFKLVNANGEAVYCKFHYKTDQGIKNLSVEDAARLAHEDPDYGLRDLFNAIATGNYPSWTLYIQVMTFSEAEIFPFNPFDLTKVWPHGDYPLIPVGKLVLNRNPVNYFAEVEQLAFDPSNMPPGIEPSPDKMLQGRLFAYPDTHRHRLGPNYLQIPVNCPYRARVANYQRDGPMCMMDNQGGAPNYYPNSFSAPEHQPSALEHRTHFSGDVQRFNSANDDNVTQVRTFYLKVLNEEQRKRLCENIAGHLKDAQLFIQKKAVKNFSDVHPEYGSRIQALLDKYNEEKPKNAVHTYVQHGSHLSAREKANL
Turning to B1, the activity of suspension in data set [2] is recorded as 4.1×10^4 U/ml. The “catalytic activity after deposition and ultrasonic water bath” value in data set [3] (coated sample in ultrasonic water bath 10 min, then 5% hydrogen peroxide) was “produced bubbling of oxygen from the surface of the substrate”. The “catalytic activity after molecular plasma deposition” value in data set [3] is given as “producing bubbling of oxygen from the surface”; in data set [3] (listed as Catalase) it was “without loss of catalytic activity”. For the same molecule, the “catalytic activity after deposition, ultrasonic water bath and storage” value in data set [3] (ultrasonic water bath 10 min, then 10° C. for 72 hr, then 5% hydrogen peroxide) is “produced bubbling of oxygen from the surface of the substrate”.

The values are drawn from patent US7250195B1, “Molecular plasma deposition of colloidal materials” (Ionic Fusion Corporation, priority 2006, dated 2007).
